Data set [1] deals with T1, E. coli sigma70-RNAP holoenzyme (Escherichia coli, UniProt P0A7Z4;P0A8V2;P0A8T7;P0A800;P00579 1-329;1-1342;1-1407;2-91;1-613). The data set is described as follows: EMSA; reported to bind more tightly than Paenibacillus sigma70; EMSA: Roche DIG Gel Shift Kit, 0.03 pmol labeled DNA, buffer not stated; footprinting: binding 30 min at 25 C, DNase I 40 s at 37 C. As to conditions: protein: commercial; chain copies: 2;1;1;1;1; label: digoxigenin (DIG Gel Shift Kit); blunt.

The target in data set [2] is T1, E. coli sigma70-RNAP holoenzyme. The data set is described as follows: EMSA; EMSA: Roche DIG Gel Shift Kit, 0.03 pmol labeled DNA, buffer not stated; footprinting: binding 30 min at 25 C, DNase I 40 s at 37 C. Conditions: protein: commercial; chain copies: 2;1;1;1;1; blunt.

B1: nifB promoter 50 bp (-47 to +3) (dsDNA)
DNA 1: GGAGAAGTGAATTGACTGTATTTGTCCCTGTCTCTAAGATGTAATTATAT
DNA 2: ATATAATTACATCTTAGAGACAGGGACAAATACAGTCAATTCACTTCTCC
As to B1, the binding result in data set [1] is recorded as “binds”.

B2: scrambled 39 bp DNA (dsDNA)
DNA 1: GTACGGAGTATCCAGCTCCGTAGCATGCAAATCCTCTGG
DNA 2: CCAGAGGATTTGCATGCTACGGAGCTGGATACTCCGTAC
B2: the binding result in data set [2] is listed as “no binding”.
